Data reported in patent US20250340637A1 (ABPRO, published 2025).
Substitutions are numbered along the chain they refer to. Where two headings read alike, the source gives them in different places.

Legend:
Assay in all cases: SPR, Biacore 8K; CD3 Affinity column: Low
HuCD3E [1] = biological target: T1, HuCD3E (Homo sapiens, UniProt P07766 23-126, limits assumed)
T1 construct: Recombinant analyte in SPR and antigen in ELISA; also called human CD3; human CD3 epsilon

HuCD3E [2] = biological target: T1, HuCD3E; remark: listed apart in the source
HuCD3E [3] = biological target: T1, HuCD3E; remark: listed apart in the source

T1 sequence (P07766 23-126 limits assumed): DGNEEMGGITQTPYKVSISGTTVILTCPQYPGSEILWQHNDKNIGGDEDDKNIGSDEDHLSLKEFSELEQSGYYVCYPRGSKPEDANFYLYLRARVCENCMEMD

B1: 47D10-V7-v5.5 (antibody, V domains shown)
VH: EVQLVESGGGLVQPGGSLKLSCAASGFTFNTYAMNWVRQAPGKGLEWVARIRSKYNNYATYYADSVKDRFTISRDDSKNTAYLQMNSLKTEDTAVYYCVRHGNFGNSYVSWFMYWGQGTLVTVSS
VL: QTVVTQEPSLTVSPGGTVTLTCRSSTGAVTTSNYANWVQQKPGQAFRGLIGGTNKRAPGVPARFSGSLLGGKAALTLSGVQPEDEAIYFCALWYSNLWVFGGGTKLTVL
- Kd (HuCD3E [1]): > 100 nM

B2: 47D10-V7-v5.6 (antibody, V domains shown)
VH: B1 VH with M113A
VL: B1 VL with A91M
- Kd (HuCD3E [1]): > 100 nM

B3: ABP100s.10.0.5 (antibody, V domains shown)
VH: B1 VH with G44C
VL: B1 VL with G102C
- Kd (HuCD3E [2]): > 100 nM

B4: ABP100s.10.0.6 (antibody, V domains shown)
VH: B1 VH with G44C, M113A
VL: B1 VL with A91M, G102C
- Kd (HuCD3E [2]): > 100 nM

B5: ABP100s.5.3 (antibody, V domains shown)
VH: B1 VH with M113A
VL: B1 VL with W93Y, T107E, V108I, L109K
- Kd (HuCD3E [3]): > 100 nM
